In patent US20240209076A1 (KODIAK SCIENCES, published 2024):
Where a chain is given by its changes, count along the chain named. Names and notes keep the numbering of the source.

B1: anti-IL-6 antibody, heavy chain WT, light chain S28E (antibody, IgG1, V domains shown)
VH: EVQLVESGGGLVQPGGSLRLSCAASGFTFSPFAMSWVRQAPGKGLEWVAKISPGGSWTYYSDTVTGRFTFSLDTSKSTAYLQMNSLRAEDTAVYYCARQLWGYYALDIWGQGTLVTVSS
VL: DIQLTQSPSSLSASVGDRVTITCSASIEVSYMYWYQQKPGKAPKLLIYDMSNLASGVPSRFSGSGSGTDFTLTISSLQPEDFATYYCMQWSGYPYTFGQGTKVEIK
notes: Full IgG1 tested; V domains derived as in m2
B2: anti-IL-6 antibody, heavy chain Y104V, light chain WT (antibody, IgG1, V domains shown)
VH: B1 VH with Y104V
VL: B1 VL with E28S
notes: as for B1
B3: anti-IL-6 antibody, heavy chain Y103S, light chain WT (antibody, IgG1, V domains shown)
VH: B1 VH with Y103S
VL: B1 VL with E28S
notes: as for B1
B4: anti-IL-6 antibody, heavy chain Y103E, light chain WT (antibody, IgG1, V domains shown)
VH: B1 VH with Y103E
VL: B1 VL with E28S
notes: as for B1
B5: anti-IL-6 antibody, heavy chain Y103D, light chain WT (antibody, IgG1, V domains shown)
VH: B1 VH with Y103D
VL: B1 VL with E28S
notes: as for B1
B6: anti-IL-6 antibody, heavy chain WT, light chain S26K (antibody, IgG1, V domains shown)
VH: B1 VH
VL: B1 VL with S26K, E28S
notes: as for B1
B7: anti-IL-6 antibody, heavy chain WT, light chain S28R (antibody, IgG1, V domains shown)
VH: B1 VH
VL: B1 VL with E28R
notes: as for B1
B8: Anti-IL-6 antibody, heavy chain S35H, G66D / light chain WT (antibody, IgG1, V domains shown)
VH: B1 VH with S35H, G66D
VL: B1 VL with E28S
notes: IgG1; variable domains only
B9: Anti-IL-6 antibody, heavy chain S35H, G66D, L100F / light chain M32L, M50D, N52S, M88Q (antibody, IgG1, V domains shown)
VH: B1 VH with S35H, G66D, L100F
VL: B1 VL with E28S, M32L, M50D, N52S, M88Q
notes: IgG1; variable domains only; VL is variant III
B10: Anti-IL-6 antibody, heavy chain S35H, G66D, L100Q / light chain WT (antibody, IgG1, V domains shown)
VH: B1 VH with S35H, G66D, L100Q
VL: B1 VL with E28S
notes: IgG1; variable domains only
B11: Anti-IL-6 antibody, heavy chain S35H, G66D, L100E / light chain M32L, M50D, N52S, M88Q (antibody, IgG1, V domains shown)
VH: B1 VH with S35H, G66D, L100E
VL: B1 VL with E28S, M32L, M50D, N52S, M88Q
notes: as for B9
B12: Anti-IL-6 antibody, heavy chain S35H, G66D, L100T / light chain WT (antibody, IgG1, V domains shown)
VH: B1 VH with S35H, G66D, L100T
VL: B1 VL with E28S
notes: IgG1; variable domains only
B13: Anti-IL-6 antibody, heavy chain G66D / light chain WT (antibody, IgG1, V domains shown)
VH: B1 VH with G66D
VL: B1 VL with E28S
notes: IgG1; variable domains only
B14: Anti-IL-6 antibody, heavy chain S35H, G66D, Q99A / light chain WT (antibody, IgG1, V domains shown)
VH: B1 VH with S35H, G66D, Q99A
VL: B1 VL with E28S
notes: IgG1; variable domains only
B15: Anti-IL-6 antibody, heavy chain S35H, G66D, L100K / light chain WT (antibody, IgG1, V domains shown)
VH: B1 VH with S35H, G66D, L100K
VL: B1 VL with E28S
notes: IgG1; variable domains only
B16: Anti-IL-6 antibody, heavy chain S35H, G66D, L100R / light chain WT (antibody, IgG1, V domains shown)
VH: B1 VH with S35H, G66D, L100R
VL: B1 VL with E28S
notes: IgG1; variable domains only
B17: Anti-IL-6 antibody, heavy chain S35H, G66D, L100S / light chain WT (antibody, IgG1, V domains shown)
VH: B1 VH with S35H, G66D, L100S
VL: B1 VL with E28S
notes: IgG1; variable domains only

The binders below were run against T1, recombinant human IL-6 (human, UniProt P05231 30-212) (assay: SPR (Biacore), supernatant IgG on Protein A, 25 C).
T1 construct: Flowed in solution over the captured antibodies
T1 sequence (P05231 30-212 limits assumed): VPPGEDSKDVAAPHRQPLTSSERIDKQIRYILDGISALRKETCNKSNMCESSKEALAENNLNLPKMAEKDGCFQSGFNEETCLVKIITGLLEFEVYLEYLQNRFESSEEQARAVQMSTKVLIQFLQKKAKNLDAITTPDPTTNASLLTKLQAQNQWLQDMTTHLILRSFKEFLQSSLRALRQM
Protocol: Antibodies were captured on a Protein A chip (GE) by injecting 1:20 dilution of cell supernatant at 10 μL/min for 60 seconds. […] The sensor chip was regenerated by a 60 seconds injection of 10 mM Glycine pH 1.7 at flow rate of 50 μL/min. […] For this setup, 1 μg/mL of purified antibody was injected over a Protein A chip at 10 μL/min for 25-28 seconds. Data analysis for supernatant and purified samples were performed using BIAevaluation software (GE). All sensorgrams were double reference subtracted and fit using a 1:1 Langmuir binding model.
Binder B1 has a Kd of 289 pM, a koff of 0.000121 s⁻¹ and a kon of 420000 M⁻¹ s⁻¹.
With B2 the Kd was 1340 pM, the koff was 0.000703 s⁻¹ and the kon was 525000 M⁻¹ s⁻¹.
B3 gave a Kd of 423 pM, a koff of 0.000231 s⁻¹ and a kon of 546000 M⁻¹ s⁻¹.
B4 showed a Kd of 229 pM, a koff of 0.000165 s⁻¹ and a kon of 718000 M⁻¹ s⁻¹.
With B5 the Kd was 297 pM, the koff was 0.000219 s⁻¹ and the kon was 737000 M⁻¹ s⁻¹.
With B6 the Kd was 433 pM, the koff was 0.000164 s⁻¹ and the kon was 379000 M⁻¹ s⁻¹.
Work on B7 yielded a Kd of 464 pM, a koff of 0.000171 s⁻¹ and a kon of 369000 M⁻¹ s⁻¹.

The binders below were run against human IL-6 (human, UniProt P05231 30-212) (assay: SPR Biacore, supernatant, Protein A capture, 37 C).
human IL-6, sequence (P05231 30-212 limits assumed): as above
Protocol: Those four positions were selected based on their tolerance for mutations as observed in bacterial and mammalian screens. […] These cultures were centrifuged and supernatants containing secreted antibodies were harvested and diluted in HBS-EP+ running buffer (1:20 ratio).
Antibodies were captured on a Protein A chip (GE) by injecting 1:20 cell supernatant dilutions at 10 μL/min for 60 seconds. […] The sensor chip was regenerated by a 60 seconds injection of 10 mM Glycine pH 1.7 at the flow rate of 50 μL/min. […] For this setup, 1 μg/mL of purified antibody was injected over a Protein A chip at 10 μL/min for 25 seconds. […] The sensor chip was regenerated by a 60 seconds injection of 10 mM Glycine pH 1.7 at flow rate of 50 μL/min. Data analysis for supernatant and purified samples were performed using BIAevaluation software (GE). All sensorgrams were double reference subtracted and fit using a 1:1 Langmuir binding model.
B8 showed a Kd of 374 pM, a koff of 0.000548 s⁻¹ and a kon of 1.46e+06 M⁻¹ s⁻¹.
B9 showed a Kd of 422 pM, a koff of 0.000614 s⁻¹ and a kon of 1.46e+06 M⁻¹ s⁻¹.
B10 showed a Kd of 180 pM, a koff of 0.00064 s⁻¹ and a kon of 3.56e+06 M⁻¹ s⁻¹.
B11 showed a Kd of 704 pM, a koff of 0.00145 s⁻¹ and a kon of 2.05e+06 M⁻¹ s⁻¹.
Work on B12 yielded a Kd of 217 pM, a koff of 0.000724 s⁻¹ and a kon of 3.34e+06 M⁻¹ s⁻¹.
Binder B13 has a Kd of 296 pM, a koff of 0.00048 s⁻¹ and a kon of 1.62e+06 M⁻¹ s⁻¹.
B14 was tested, and the Kd was 717 pM, the koff was 0.00132 s⁻¹ and the kon was 1.85e+06 M⁻¹ s⁻¹.
B15 showed a Kd of 180 pM, a koff of 0.00106 s⁻¹ and a kon of 5.88e+06 M⁻¹ s⁻¹.
Binder B16 has a Kd of 1010 pM, a koff of 0.000957 s⁻¹ and a kon of 951000 M⁻¹ s⁻¹.
Binder B17 has a Kd of 196 pM, a koff of 0.000644 s⁻¹ and a kon of 3.28e+06 M⁻¹ s⁻¹.
